Data as given in publication PMC3083827.

Target: T1, Whn (FoxN1) DNA binding domain, WhnDBD (UniProt Q61575 271-367)
T1 sequence: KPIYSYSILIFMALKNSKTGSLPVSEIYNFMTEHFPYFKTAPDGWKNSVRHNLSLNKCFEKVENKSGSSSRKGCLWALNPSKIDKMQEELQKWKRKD
Experiment: EMSA

B1: MUT (S1P with core CG to TA) (dsDNA)
DNA 1: CTCCTCCCTGCGCGAAGCGGAAGTGATACGAGGCGTAGCGGAAGTT
DNA 2: AACTTCCGCTACGCCTCGTATCACTTCCGCTTCGCGCAGGGAGGAG
Question: Does B1 bind?
Answer: no binding
